From US20200308591A1, “PROMOTER REGION ANALYSIS METHODS AND CELLS FOR PRACTICING SAME” (Eurofins DiscoverX Corporation, priority 2019, published 2020)

T1: RANK (Receptor activator of nuclear factor κ B receptor) (Homo sapiens, UniProt Q9Y6Q6)
T1 construct: expressed in transfected cells; host or cells: U2OS
T1 sequence (Q9Y6Q6 30-616): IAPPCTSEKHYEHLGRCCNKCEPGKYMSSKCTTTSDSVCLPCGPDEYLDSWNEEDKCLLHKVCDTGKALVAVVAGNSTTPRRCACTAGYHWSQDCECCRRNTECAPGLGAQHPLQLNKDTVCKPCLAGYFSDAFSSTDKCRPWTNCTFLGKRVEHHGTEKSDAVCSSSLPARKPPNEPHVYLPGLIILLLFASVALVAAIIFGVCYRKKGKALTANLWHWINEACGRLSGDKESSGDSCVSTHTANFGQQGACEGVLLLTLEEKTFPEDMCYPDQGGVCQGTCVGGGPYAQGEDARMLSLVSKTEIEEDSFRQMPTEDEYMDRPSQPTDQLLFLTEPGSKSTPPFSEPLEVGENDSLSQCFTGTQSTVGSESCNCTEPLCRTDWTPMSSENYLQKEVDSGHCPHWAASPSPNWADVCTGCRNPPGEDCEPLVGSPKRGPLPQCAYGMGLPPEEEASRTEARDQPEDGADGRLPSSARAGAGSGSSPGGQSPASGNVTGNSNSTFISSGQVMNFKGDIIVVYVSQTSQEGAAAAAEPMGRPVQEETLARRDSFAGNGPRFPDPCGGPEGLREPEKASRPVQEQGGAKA

T2: RANK (Receptor activator of nuclear factor κ B receptor) co-expressed in U2OS NFκB pathway reporter cells (UniProt Q9Y6Q6)
T2 sequence (looked up): T1 sequence (Q9Y6Q6 30-616)

B1: soluble RANKL (ligand, UniProt O14788 143-317, looked up)
chain: EKAMVDGSWLDLAKRSKLEAQPFAHLTINATDIPSGSHKVSLSSWYHDRGWAKISNMTFSNGKLIVNQDGFYYLYANICFRHHETSGDLATEYLQLMVYVTKTSIKIPSSHTLMKGGSTKYWSGNSEFHFYSINVGGFFKLRSGEEISIEVSNPSLLDPDQDATYFGAFKVRDID

Tests used:
CD40 receptor [1] = target: T3, CD40 receptor (Homo sapiens, UniProt P25942); assay: U2OS NF-κB pathway reporter assay with carrier protein (Example 12); format: cell-based; details: 5000 cells/well; 6 h at 37 °C
T3 construct: The cells also endogenously express CD40 (receptor); endogenous in cells; host or cells: U2OS
From the text: (§1) A reporter cell line was engineered to express a carrier protein-Enzyme Donor (ED) tagged carrier protein controlled by a pathway-inducible transcriptional response element. Pathway activation results in induced expressions of the carrier protein-ED-tagged protein. Addition of exogenous Enzyme Acceptor (EA), and buffer, lyses the cell and forces complementation of the ED and EA enzyme fragments.
(§2) In this example, the cell line is a NFκB (nuclear factor NF-kappa-B p100 subunit) pathway reporter cell line. The cells are U2OS cells that include a nucleic acid encoding a reporter fragment and β-galactosidase donor fragment (ED) having the amino acid sequence […] (SEQ ID NO:30) operably coupled to a promoter region comprising a NFκB response element. The cells also endogenously express CD40 (receptor).
(§3) Cells were plated in a 96-well plate and incubated at 37° C. and 5% CO2 to allow the cells to attach and grow. Cells were then stimulated with a control agonist (here, CD40L), using the assay conditions described below. Following stimulation, signal was detected using the PathHunter® ProLabel®/ProLink™ Detection Kit (Eurofins DiscoverX Corporation) according to the recommended protocol.

CD40 receptor [2] = target: T3, CD40 receptor; assay: EFC-based versus Luciferase NFκB transcriptional reporter assay, CD40L; format: cell-based; details: 6h stimulation
Experimental: FIG. 13. […] U2OS cells stably transfected with a plasmid encoding an NFκB transcriptional response element driving expression of either the EFC reporter (left panel) or (Firefly) Luciferase-PEST were stimulated with a range of concentrations of CD40L for 6h followed by cell lysis, addition of excess EA, incubation for 1h and determination of luminescence (RLU). The luminescence detected indicates the extent of induction of the respective carrier protein by CD40L.
The EFC-based NFκB transcriptional reporter assay was over 35 times more sensitive to CD40L than the luciferase-based assay. Note that the reporter plasmids used to make the stable cell lines had identical elements with the only significant difference being the identity of the carrier protein. Specifically, both plasmids had the same promoter elements and both had the same protein destabilizing element (PEST sequence).

[3] = system: NFκB (nuclear factor NF-kappa-B p100 subunit) pathway; assay: U2OS NFκB pathway reporter cell line (Example 7); format: cell-based; details: 5000 cells/well; 360 min at 37 °C
From the text: as §1, with “an Enzyme” for “a carrier protein-Enzyme”, “ED-tagged” for “carrier protein-ED-tagged”
as §2, with “is an” for “is a”, “a” for “a reporter fragment and”, “comprising an” for “comprising a”, “element.” for “element. The cells also endogenously express CD40 (receptor).”
as §3

CD40 receptor [4] = target: T3, CD40 receptor; assay: NFkB EFC reporter assay cells, CD40L stimulation (FIG. 7); format: cell-based; details: 3h or 6h incubation
From the text: Often multiple ligands acting through different cellular receptors will stimulate the same signaling pathway allowing the same EFC reporter assay to be used to study the function and inhibition of function for these multiple ligands. For example, in FIGS. 4-6 stimulation and inhibition of TNFα-stimulated NFkB signaling and gene expression was studied.

[5] = target: T1, RANK (Receptor activator of nuclear factor κ B receptor); assay: U2OS RANK-NFκB pathway reporter assay (Example 13); format: cell-based; details: 5000 cells/well; 16 h at 37 °C
From the text: as §1
as §2, with “(Nuclear” for “(nuclear”, “To produce the RANK-NFκB reporter assay RANK (Receptor activator of nuclear factor κ B receptor) is co-expressed in the above-developed U2OS NFκB Pathway Reporter cells.” for “The cells also endogenously express CD40 (receptor).”
as §3, with “sRANKL),” for “CD40L),”

RANK = assay: Comparison of U2OS NF-κB and U2OS RANK-NF-κB reporter cell lines (Example 16); format: cell-based; details: FIG. 24b versus FIG. 24a
From the text: as §1, with “Two reporter” for “A reporter”, “cell lines were” for “cell line was”
In this example, a first cell line is a U2OS-NF-κB pathway reporter cell line and the second cell line is U2OS RANK-NF-κB cell line. The cells are U2OS for both the cell lines as prepared in this example 16. The U2OS-NF-κB cell line includes a nucleic acid encoding a reporter fragment and β-galactosidase donor fragment (ED) having the amino acid sequence […] (SEQ ID NO:30) operably coupled to a promoter region comprising a NFκB response element. The U2OS RANK-NF-κB cell line includes a nucleic acid encoding a reporter fragment and β-galactosidase donor fragment (ED) having the amino acid sequence […] (SEQ ID NO:30) operably coupled to a promoter region comprising a NFκB response element followed by co-expression of RANK-CD27 (receptor) in the above-developed U2OS NF-κB pathway reporter cell line.
Assay results for U2OS NF-κB cell line with CD40L ligand is shown in FIG. 24a and assay results for U2OS RANK NF-κB cell line with sRANK ligand is shown in FIG. 24b.

[6] = target: T2, RANK (Receptor activator of nuclear factor κ B receptor) co-expressed in U2OS NFκB pathway reporter cells; assay: cell-based or functional assay

T3 sequence (P25942 21-277): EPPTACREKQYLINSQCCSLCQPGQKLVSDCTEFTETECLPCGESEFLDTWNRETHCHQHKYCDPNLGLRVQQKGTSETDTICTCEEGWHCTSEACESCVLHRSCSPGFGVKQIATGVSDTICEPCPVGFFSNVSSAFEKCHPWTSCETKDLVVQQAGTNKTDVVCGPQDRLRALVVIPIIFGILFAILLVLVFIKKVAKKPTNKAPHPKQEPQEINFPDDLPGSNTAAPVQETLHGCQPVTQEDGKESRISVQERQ

Molecule | EC50 for control agonist stimulation (CD40 receptor [1]) [ng/mL] | signal:background ratio (CD40 receptor [1]) | sensitivity of EFC-based assay relative to luciferase-based assay (CD40 receptor [2]) | EC50 for control agonist stimulation [3] [ng/mL] | signal:background ratio at agonist EMAX [3] | response of endogenous CD40 receptor to ligand (CD40 receptor [4]) | EC50 for control agonist stimulation [5] [ng/mL] | signal:background ratio [5] | EC50 compared with U2OS NF-κB cell line with CD40L (RANK) | signal:background ratio compared with U2OS NF-κB cell line with CD40L (RANK) | EC50 for control agonist stimulation, U2OS RANK-NFκB pathway reporter cell line [6] [ng/mL] | signal:background ratio, U2OS RANK-NFκB pathway reporter cell line [6]
CD40L: CD40 ligand, control agonist acting through the CD40 receptor | 88.6 | 102.8 | over 35 times | 225.4 | 26.3 | responded robustly |  |  |  |  |  | 
B1 |  |  |  |  |  |  | 4.034 | 24.0 | lower EC50 | larger signal:background ratio | 4.03 | 24
